According to US20230416360A1:

Key:
[1] = target: human CD22 (full length, on cells) (human) (UniProt P20273); experiment: FACS, Raji cells
[2] = target: human CD22 (full length, on cells) (human) (UniProt P20273); experiment: FACS, CHO-K1-human CD22 1D9
[3] = target: human CD22 (full length, on cells) (human) (UniProt P20273); experiment: FACS, CHO-K1-human CD22 1G5
[4] = target: human CD22 (full length, on cells) (human) (UniProt P20273); experiment: FACS, CHO-K1-human CD22 2C4
[5] = target: human CD22 (full length, on cells) (human) (UniProt P20273); experiment: FACS, CHO-K1-human CD22 2C4 cells
[6] = target: human CD22-ECD-His (human) (UniProt P20273); experiment: ELISA, coated hCD22-ECD-His, antibody 10 nM
[7] = target: human CD22-ECD-His (human) (UniProt P20273); experiment: ELISA, coated hCD22-ECD-His, antibody 100 nM
[8] = target: human CD22-ECD-His (human) (UniProt P20273); experiment: ELISA, coated hCD22-ECD-His, antibody 0.01 nM
[9] = target: human CD22-ECD-His (human) (UniProt P20273); experiment: ELISA, coated hCD22-ECD-His, antibody 0.10 nM
[10] = target: human CD22-ECD-His (human) (UniProt P20273); experiment: ELISA, coated hCD22-ECD-His, antibody 0.001 nM
[11] = target: human CD22-ECD-His (human) (UniProt P20273); experiment: ELISA, coated hCD22-ECD-His, antibody 0.0001 nM
[12] = target: human CD22-ECD-His (human) (UniProt P20273); experiment: ELISA, coated hCD22-ECD-His, antibody 0.00001 nM
[13] = target: cynomolgus monkey CD22 on peripheral blood B cells (cynomolgus monkey (Macaca fascicularis)); experiment: FACS, cynomolgus PBMC, CD20+ B cells, antibody 1 nM
[14] = target: cynomolgus monkey CD22 on peripheral blood B cells (cynomolgus monkey (Macaca fascicularis)); experiment: FACS, cynomolgus PBMC, CD20+ B cells, antibody 10 nM
[15] = target: cynomolgus monkey CD22 on peripheral blood B cells (cynomolgus monkey (Macaca fascicularis)); experiment: FACS, cynomolgus PBMC, CD20+ B cells, antibody 100 nM

Cell mean fluorescence density [1]: 158
Max MFI [1]: 374
Cell mean fluorescence intensity [2]: 66
Cell mean fluorescence intensity [3]: 66
Cell mean fluorescence intensity [4]: 66
Max MFI [5]: 340
OD450 [6]: 0.08
OD450 [7]: 0.15
OD450 [8]: 0.06
OD450 [9]: 0.06
OD450 [10]: 0.06
OD450 [11]: 0.06
OD450 [12]: 0.05
Proportion of VHH-Fc antibody positive cells to B cells (%) [13]: 0%
Proportion of VHH-Fc antibody positive cells to B cells (%) [14]: 0%
Proportion of VHH-Fc antibody positive cells to B cells (%) [15]: 3%
Substance: anti-hel-hIgG1 (negative control antibody against chicken egg lysozyme)
